Measured values published in the nanobody polyreactivity screen of Harvey et al. (2022).

Assay: yeast display, Sf9 membrane polyspecificity reagent, FACS + sequencing; frameworks hold sequencing errors
How it was run: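 Using colony PCR, genes from sorted yeast display clones were amplified, then sequenced on MiSeq at 2 × 250 and filtered by CDR length. The clones had been stained with 10% biotinylated, detergent-solubilized Sf9 membrane reagent for 1 hour at 4 °C and sorted by FACS into low and high (top ~1%) gates on anti-HA and streptavidin fluorescence. Polyreactivity labels come from the gate of origin.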

**Q.** For “QVQLVESGGGLVQAGGSLRLSCAASGSTFPYNAMGWYRQAPGKEWELVAAISQSGGSTYYADSVKGRFTISRDNAKNTVYLQMNSLKPEDTAVYYCATDQSLLAHYDYWGQGTQVTVSS”, which “polyreactivity (PSR sort gate)” value is on record?
**A.** Its value is “low polyreactivity”.

**Q.** For “QVQLVESGGGLVQAGGSLRLSCAASGSTFPYNVMGWYRQAPGKEREFVAAISSSSGSTYYADSVKGRFTISRDNAKNTVYLQMNSLKPEDTAVYYCARRHPRQRQDGKVDYWGQGTQVTVSS”, which “polyreactivity (PSR sort gate)” value is on record?
**A.** Its value is “low polyreactivity”.

**Q.** With “QVQLVESGGGLVQAGGSLRLSCAASGSTFPYVMGWSRQAPGKERELVAAISQRTGSTYYADSVKGRFTSSRDNAKNTVYLQMNSLKPEDTAVYYCAKPGYLRPSRYDYWGQGTQVTVSS” as the sequence, how does the “polyreactivity (PSR sort gate)” value read?
**A.** Its value is “high polyreactivity”.

**Q.** For “QVQLVESGGGLVQAGGSLRLSCAASGSTFPYVMGWYRQAPGKERELVAAISWSGTSTYYADSVKGRFTISRDNAKNTVYLQMNSLKPEDTAVYYCNVVYRVVSPSGGGYWGQGTQVTVSS”, which “polyreactivity (PSR sort gate)” value is on record?
**A.** Its value is “high polyreactivity”.

**Q.** Which “polyreactivity (PSR sort gate)” value does the source give for “QVQLVESGGGLVQAGGSLRLSCAASGSTFPYYALGLYRQAPGKERELVAAISRGGGITYYADSVKGRFSISRDNAKNTVYLQMNCLKPEDTAVYYCAAYTAAEQGYNYWGQGTQVTVSS” here?
**A.** Its value is “high polyreactivity”.

**Q.** With “QVQLVESGGGLVQAGGSLRLSCAASGSTFPYYAMGWYRQAPWKERELVAAIRRRTGSTHYADSVKGRFSISRDNAMNTVYLQMNSLKQEDTAFYYCAADVSYRGNGHGYWGQGTQVNVSS” as the sequence, how does the “polyreactivity (PSR sort gate)” value read?
**A.** Its value is “low polyreactivity”.

**Q.** With “QVQLVESGGGLVQAGGSLRLSCAASGSTFPYYAMGWYRQEPGKERELVASIRKRGGGTYYADSVKGRFTISRDNAKNTVYLQMNSLKPEDTAVYYCAVRVYQFRYTGYDYWGQGTQVTVSS” as the sequence, how does the “polyreactivity (PSR sort gate)” value read?
**A.** Its value is “high polyreactivity”.

**Q.** With “QVQLVESGGGLVQAGGSLRLSCAASGSTFPYYTMGWYRQAPGKERELVAAITWRGGRTYYADSVKGRFTISRDNAKNTVYLQMNSLKPEDTAVYYCAAKQKHTQQTGWKYEYWGQGTQVTVSS” as the sequence, how does the “polyreactivity (PSR sort gate)” value read?
**A.** The value was “high polyreactivity”.

**Q.** With “QVQLVESGGGLVQAGGSLRLSCAASGSTFPYYVMGWYRQAPGKERELVASIRSNSGRTYYADSVKGRFTISRDNAKNTVYLQMNSLKPEDTAVYYCNAGVPRYAYTYVKGYYWGQGTQVTVSS” as the sequence, how does the “polyreactivity (PSR sort gate)” value read?
**A.** The value was “high polyreactivity”.

**Q.** With “QVQLVESGGGLVQAGGSLRLSCAASGSTFQFYAMGWYRQAPGKEREFVAAIDFGGAGTYYADSVKGRFTISRDTAKNTVYLQMNSLKPEDTAVYYCNARDGVTSEFDYWGQGTQVTVSS” as the sequence, how does the “polyreactivity (PSR sort gate)” value read?
**A.** Its value is “low polyreactivity”.

**Q.** Which “polyreactivity (PSR sort gate)” value does the source give for “QVQLVESGGGLVQAGGSLRLSCAASGSTFQFYAMGWYRQAPGKERELVAAIRSSDDSTYYADSVKGRFTISRDNAKNTVYLQMNSLKPEDTAVYYCAAVQDYYGVWYDYWGQGTQVTVSS” here?
**A.** Its value is “high polyreactivity”.

**Q.** Which “polyreactivity (PSR sort gate)” value does the source give for “QVQLVESGGGLVQAGGSLRLSCAASGSTFQFYAMGWYRQAPGKERELVAAISVSGDRTYYADSVKARFTISRDNAKNTVYLQMNSLKPEDSAVYYCAARYGPFKRRFDYWGLGTQVTVSS” here?
**A.** Its value is “high polyreactivity”.

**Q.** With “QVQLVESGGGLVQAGGSLRLSCAASGSTFQGNAMGWYSQAPGKERELVAAISRSGGSTYADSVKGRFTISRDNAKNTVYLQMNSLKPEDTAVYYCAAYSGVGYLWFDYWGQGTQVTVSS” as the sequence, how does the “polyreactivity (PSR sort gate)” value read?
**A.** Its value is “low polyreactivity”.

**Q.** With “QVQLVESGGGLVQAGGSLRLSCAASGSTFQGYAMGWYRPAPGTERELVAAINYSGGSTYYADSVKGRFTISRDNAKNTVYVLMNSLKPEDTAVYYCAVKLRSRAGTSYGYWGQGTQVTVSS” as the sequence, how does the “polyreactivity (PSR sort gate)” value read?
**A.** Its value is “high polyreactivity”.

**Q.** For “QVQLVESGGGLVQAGGSLRLSCAASGSTFQGYAMGWYRQAPGKEREFVAAISRSGGRTYYADSVKGRFTISRDNAKNTVYLQMNSLKPEDTAVYYCAALPYWEYGYWGQGTQVTVSS”, which “polyreactivity (PSR sort gate)” value is on record?
**A.** The value was “high polyreactivity”.

**Q.** For “QVQLVESGGGLVQAGGSLRLSCAASGSTFQGYAMGWYRQAPGKERELVAVINRSGTNTYYADSVKGRFTISRDNAKNTVYLQMNSLKPEDTAVYYCNAQPSSKPPTYYYWGQGTQVTVSS”, which “polyreactivity (PSR sort gate)” value is on record?
**A.** Its value is “high polyreactivity”.

**Q.** With “QVQLVESGGGLVQAGGSLRLSCAASGSTFQIYTMGWYRQAPGKERELVAAITNGGGSTYYADSVKGRFTISRDNAKNTVYLQMNSLKPEDTAVYYCAAEQRYPLIILYDYWGQGTHVTVSS” as the sequence, how does the “polyreactivity (PSR sort gate)” value read?
**A.** Its value is “low polyreactivity”.

**Q.** For “QVQLVESGGGLVQAGGSLRLSCAASGSTFQIYVKGWYRQAPGKERELVAAISGSGVRTYYADSVKGRFTISRDTAKNTVYIQMHSLKPEDTAVYYCAVDYKSDWAYDYWGQGTQVTVSS”, which “polyreactivity (PSR sort gate)” value is on record?
**A.** Its value is “high polyreactivity”.

**Q.** Which “polyreactivity (PSR sort gate)” value does the source give for “QVQLVESGGGLVQAGGSLRLSCAASGSTFQLYAMGWYRQAPGKEREFVAAIRGRGGNTYADSVKGRFTISRDNAKNTVFLQMNSLKPEDTAVYYCAAPLLRDLRSPYSYNYWGQGTQVTVSS” here?
**A.** The value was “low polyreactivity”.

**Q.** With “QVQLVESGGGLVQAGGSLRLSCAASGSTFQPYAMGWYRQAAGNEREFVATISGSAGSTNYADSVKGRFTTSRDNAKSTVYLQMNSLKPEDTALYYCNALYRYLYRSGDYWGQGNQVTVSS” as the sequence, how does the “polyreactivity (PSR sort gate)” value read?
**A.** The value was “low polyreactivity”.

**Q.** For “QVQLVESGGGLVQAGGSLRLSCAASGSTFQQYAMGWYRQAPGKEREFVARISYGGGSTYYADSVKGRFTISRDNAKNTVYLQMNSLKPEDTAVYYCNAVRKGYYRWVFQNRYYYWGQGTQVTVSS”, which “polyreactivity (PSR sort gate)” value is on record?
**A.** The value was “high polyreactivity”.

**Q.** With “QVQLVESGGGLVQAGGSLRLSCAASGSTFQQYAMGWYRQAPGKERELVAAITGSTGSTYYADSVKGRFTISRDNAKNTVYLQMNSLKPEDTAVYYCNAVRYSRYYRKYNYWGQGTQVTVSS” as the sequence, how does the “polyreactivity (PSR sort gate)” value read?
**A.** Its value is “high polyreactivity”.

**Q.** For “QVQLVESGGGLVQAGGSLRLSCAASGSTFQRNTMGWYRQAPGKERELVADITWSGGNTYYADSVKGRFTISRDNAKNTVYLQMNSLKPEDTAVYYCAAQNVRVGWHASTSYPCPLDYWGPGTQVTVSS”, which “polyreactivity (PSR sort gate)” value is on record?
**A.** The value was “low polyreactivity”.

**Q.** For “QVQLVESGGGLVQAGGSLRLSCAASGSTFQRYAMGGSRQAPGKERELVAAITAGGSTYYADSVKGRFTISRDNAKNTVYLQLNSLKPEDTAVYYCNAAWFYRYGYWGQGTQVTVSS”, which “polyreactivity (PSR sort gate)” value is on record?
**A.** Its value is “high polyreactivity”.

**Q.** Which “polyreactivity (PSR sort gate)” value does the source give for “QVQLVESGGGLVQAGGSLRLSCAASGSTFQRYAMGWYRQAPGKERELVASISTSGGSTYYAHSVKGRFTISRDNAKNTVYLQMNSLKPEDTAVYYCAAQGWSRQVREGWIKRDYWGQGTQVTVSS” here?
**A.** Its value is “high polyreactivity”.

**Q.** Which “polyreactivity (PSR sort gate)” value does the source give for “QVQLVESGGGLVQAGGSLRLSCAASGSTFQRYVMGWYRPAPGKERELVAAITRTGASTYYADSVKGRFTISRDYAKNTVDLQMNSRKPEDTAGYYCAARYPLGSYTYDFWGQGTQVTVSS” here?
**A.** Its value is “high polyreactivity”.

**Q.** Which “polyreactivity (PSR sort gate)” value does the source give for “QVQLVESGGGLVQAGGSLRLSCAASGSTFQSNAMGGYRQAPGKERELVAAISSSAGTTFYADSVKGRFTISRDNAKNTVYLQMNSLKPEDTAVYYCAAEYSRSYIEYDYWGQGTQVTVSS” here?
**A.** The value was “low polyreactivity”.

**Q.** With “QVQLVESGGGLVQAGGSLRLSCAASGSTFQSNAMGWYRQAPGKERELVAAINSGTSTYYADSVKGRFTISRDNAKNTVYLQMNSLKPEDTAVYYCAADGIWGEYYYSELGDYDYWGQGTQVTVSS” as the sequence, how does the “polyreactivity (PSR sort gate)” value read?
**A.** The value was “low polyreactivity”.

**Q.** For “QVQLVESGGGLVQAGGSLRLSCAASGSTFQSYAMGWYRQAPGKERELVAAISTSDTDRTYYADSVKGRFTISRDNAKNTVYLQMNSLKPEDTAVYYCNAEGTYRPEYDSWGQGTQVTVSS”, which “polyreactivity (PSR sort gate)” value is on record?
**A.** Its value is “low polyreactivity”.

**Q.** For “QVQLVESGGGLVQAGGSLRLSCAASGSTFQSYAMGWYRQAPGKERELVAGITSGDSTNYADSVKGRFTISRDNAKNTVYFQMISLKPEDTAVYYCNAVTQASYYYWGQGTQVTVSS”, which “polyreactivity (PSR sort gate)” value is on record?
**A.** The value was “low polyreactivity”.
